In this assay the target is T1, human TIGIT (human, UniProt Q495A1 22-141).
T1 construct: also called hTIGIT
T1 sequence (looked up): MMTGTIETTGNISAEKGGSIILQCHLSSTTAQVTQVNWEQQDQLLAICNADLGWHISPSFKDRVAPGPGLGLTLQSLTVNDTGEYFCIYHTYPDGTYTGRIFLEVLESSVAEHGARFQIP
Kind of assay: SPR, captured by anti-human Fc, hTIGIT analyte. The text has this:
The sensorgrams for reference channel Fc1 and buffer channel were subtracted from the test sensorgrams.

One may read the Kd as the equilibrium constant for the complex coming apart. Low values mean tighter binding, high ones weaker binding.

B1: Tiragolumab (antibody, human IgG1, kappa, V domains shown)
VH: EVQLQQSGPGLVKPSQTLSLTCAISGDSVSSNSAAWNWIRQSPSRGLEWLGKTYYRFKWYSDYAVSVKGRITINPDTSKNQFSLQLNSVTPEDTAVFYCTRESTTYDLLAGPFDYWGQGTLVTVSS
VL: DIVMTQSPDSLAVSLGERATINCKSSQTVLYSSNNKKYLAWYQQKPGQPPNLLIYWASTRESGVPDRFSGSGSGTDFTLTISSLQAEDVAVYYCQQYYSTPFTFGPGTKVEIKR
notes: also called anti-TIGIT antibody; control antibody
Take B1: the affinity, expressed as Kd, was 0.0595 nM.

These data come from patent publication US20230136331A1 (ILDONG PHARMACEUTICAL, published 2023).
